By EC50 is commonly meant the concentration that produces a half-maximal response. Higher therefore signals a need for much substance.

To fix the notation:
B1: VP020 (V-CTLD-1 with V-IGG4-ADC-B-Fc) (Fc fusion)
chain: ERLCHPCPWEWTFFQGNCYFMSNSQRNWHDSITACKEVGAQLVVIKSAEEQNFLQLQSSRSNRFTWMGLSDLNQEGTWQWVDGSPLLPSFKQYWNRGEPNNVGEEDCAEFSGNGWNDDKCNLAKFWICKKSAASCSGGGGSGGGGSGGGGSKYGPPCPPCPAPEAAGGPSVFLFPPKPKDTLMISRTPEVTCVVVDVSQEDPEVQFNWYVDGVEVHNAKTKPREEQFNSTYRVVSVLTVLHQDWLNGKEYKCAVSNKGLPSSIEKTISKCKGQPREPQVYTLPPSQEEMTKNQVSLTCLVKGFYPSDIAVEWESNGQPENNYKTTPPVLDSDGSFLLYSKLTVDKSRWQEGNVFSCSVMHEALHNHYTQKSLSLSLGK
notes: also called CT-G4-B-DC; VIT-308
B2: VP019-F2 (multimer fraction F2 of VP019, V-TIM1-1 with V-IGG4-ADC-A-Fc) (Fc fusion)
chain: SVKVGGEAGPSVTLPCHYSGAVTSMCWNRGSCSLFTCQNGIVWTNGTHVTYRKDTRYKLLGDLSRRDVSLTIENTAVSDSGVYCCRVEHRGWFNDMKITVSLEIVGGGGSGGGGSGGGGSKYGPPCPPCPAPEAAGGPSVFLFPPKPKDTLMISRTPEVTCVVVDVSQEDPEVQFNWYVDGVEVHNAKTKPREEQFNSTYRVVSVLTVLHQDWLNGKEYKCAVSNKGLPSSIEKTISKCKGQPREPQVYTLPPSQEEMTKNQVSLTCLVKGFYPSDIAVEWESNGQPENNYKTTPPVLDSDGSFFLYSRLTVDKSRWQEGNVFSCSVMHEALHNHYTQKSLSLSLGK
notes: also called TM-G4-A-DC; VIT-307
B3: VP025-CT (co-transfected product of genes TM-G4-A-DC and CT-G4-B-DC, heterodimer mixture) (Fc fusion)
chain 1: B2 chain
chain 2: B1 chain
notes: also called VP025-CT (heterodimer mixture)
B4: VP025-F4 (fraction 4 of VP025-CT, VP019/VP020 heterodimer, about 78% pure) (Fc fusion)
chain 1: B2 chain
chain 2: B1 chain
notes: also called VP025-F4 (78% pure heterodimer)

Several values for one entry are separate records, joined by “and”; a condition that tells them apart may be missing. Equal entries are not always repeated.

For one experiment, the target named is T1, SARS-Cov-2 S D614G (SARS-CoV-2, UniProt P0DTC2 16-1213).
T1 construct: also called SARS-CoV-2 S protein (D614G); SARS-COV2 S Protein
In words: ELISA, 2.5 mM CaCl2. On the technique in general: An ELISA detects its analyte on a solid surface through an enzyme-linked reagent.
On to B1, for which the EC50 was 52.5 nM.
The molecule B2 gave an EC50 of 21.1 nM.
The same measure, in the same setting: the result for B3 reads 13.8 nM; that for B4, 10 nM.

In another experiment the target is T1, SARS-Cov-2 S D614G. In words: ELISA, 2.5 mM CaCl2. This is another data set of the same source.
As for B3, the EC50 is 4 µg/mL and 47.6 nM.

The next experiment addresses T1, SARS-Cov-2 S D614G. The experiment in a line: ELISA, 2.5 mM CaCl2. The source holds these as a separate data set.
For the molecule B1, the EC50 is 4.5 µg/mL.
In the case of B2, the EC50 was determined as 1.7 µg/mL.
Still for that read-out and setting: the result for B3 reads 1.2 µg/mL.
On the same count and under the same terms, as for B4, the figure is 0.8 µg/mL.

The next experiment has as its target T1, SARS-Cov-2 S D614G. In words: ELISA, 2.5 mM CaCl2. The source holds these as a separate data set.
On to B1, for which the EC50 is 55.6 µg/mL and 641 nM.
The same measure, in the same setting: the result for B2 reads 0.9 µg/mL and 10.6 nM; that for B3, 6.9 µg/mL and 82.5 nM.

These data come from patent US20230338465A1 (VITRUVIAE, published 2023).
